Laboratory results published in publication PMC9087378 (Immunity, 2021).
Where a chain is given by its changes, count along the chain named. Numbers in names are those of the source. Where no end group is shown, it is not given here. The star is where a group is joined. Biotin = O=C1N[C@H]2[C@H](CS[C@H]2CCCCC(=O)*)N1

T1: peptide 21 (PfCSP residues 101-115) (Plasmodium falciparum)
T1 chain: NPDPNANPNVDPNAN

T2: Biotinylated junctional peptide NPDP19 (Plasmodium falciparum NF54/3D7)
T2 chain: Biotin-KQPADGNPDPNANPNVDPN

T3: peptide 21, biotinylated (Plasmodium falciparum NF54/3D7, also: biotin, position not given here)
T3 chain: NPDPNANPNVDPNAN

T4: peptide NANP5, biotinylated (Plasmodium falciparum, biotin (position not given))
T4 chain: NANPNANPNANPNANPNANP

B1: iGL-CIS43.D3 Fab (Fab, V domains shown)
VH: QVHLVQSGAEVKKPGASVKVSCKASGYTFTRYAIHWVRQAPGQRLEWMGWIKGGNGNTRYSQKFQDRVTITRDTSASTAYMELSSLRSEDTAVYYCALLTVITPDDAFDIWGQGTMVTVSS
VL: not shown
B2: iGL-CIS43-HL.K28.m43.151 Fab (Fab, V domains shown)
VH: B1 VH with R31S
VL: not shown
B3: iGL_Core8 with the reversion I34M in the heavy chain (antibody, V domains shown)
VH: B1 VH with H3Q, R31S, I34M, G53A, D66G
VL: not shown
B4: iGL-CIS43-HL.K28.m42.127 Fab (Fab, V domains shown)
VH: B1 VH with H3Q, R31S, G53A, A107T
VL: not shown
B5: iGL_Core8 with the reversion K52N in the heavy chain (antibody, V domains shown)
VH: B1 VH with H3Q, R31S, K52N, G53A, D66G
VL: not shown
B6: iGL_Core8 with the reversion S94T in the light chain (antibody, V domains shown)
VH: B1 VH with H3Q, R31S, G53A, D66G
VL: not shown
B7: iGL_Core8 with the reversion I98V in the heavy chain (antibody, V domains shown)
VH: B1 VH with H3Q, R31S, G53A, D66G, I102V
VL: not shown
B8: mature CIS43 Fab (Fab, V domains shown)
VH: B1 VH with H3Q, R31S, G53A, A76T, S77T, I102L
VL: not shown
B9: iGL_Core8 with the reversion R58K in the heavy chain (antibody, V domains shown)
VH: B1 VH with H3Q, R31S, G53A, R59K, D66G
VL: not shown

Columns and labels:
[1] = target: T1, peptide 21 (PfCSP residues 101-115); experiment: crystal structure
[2] = target: T2, Biotinylated junctional peptide NPDP19; experiment: BLI
[3] = target: T2, Biotinylated junctional peptide NPDP19; experiment: AlphaScreen or HTRF
[4] = target: T3, peptide 21, biotinylated; experiment: BLI
[5] = target: T4, peptide NANP5, biotinylated; experiment: BLI

Binder	binding result [1]	binding result [3]	also measured
B1	binds	–	Kd [2]: 1.01 nM
B2	binds	–	–
B3	–	binds	–
B4	binds	–	–
B5	–	binds	–
B6	–	binds	–
B7	–	binds	–
B8	–	–	binding result [4]: binds; binding result [5]: binds
B9	–	binds	–
